Laboratory results as given in patent publication US20200239586A1.

T1: human Fn14 (human) (UniProt Q9NP84)
T1 sequence: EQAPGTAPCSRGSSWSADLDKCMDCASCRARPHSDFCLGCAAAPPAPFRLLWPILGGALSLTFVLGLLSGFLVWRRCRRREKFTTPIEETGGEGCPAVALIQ

T2: synthetic peptide hFn14 sub-domain 3 (human)
T2 sequence (peptide, biotin on the added C-terminal lysine): ASCRARPHSDFCLGK

T3: Histidine tagged hFn14 extracellular domain, bacterially expressed (human) (UniProt Q9NP84)
T3 sequence: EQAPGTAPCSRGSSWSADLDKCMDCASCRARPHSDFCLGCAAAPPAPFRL


Experiments:
human Fn14 (human) = target: T1, human Fn14 (human); test: cell-based or functional assay
[1] = target: synthetic peptide hFn14 sub-domain 2 (human); test: ELISA on biotinylated sub-domain 2 peptide, mAb at 5 ng/ml
[2] = target: T2, synthetic peptide hFn14 sub-domain 3 (human); test: ELISA on biotinylated sub-domain 3 peptide, mAb at 0.2 ug/ml
[3] = target: T3, Histidine tagged hFn14 extracellular domain, bacterially expressed (human); test: SPR (ProteOn XPR36), mAb coupled to chip, His-tagged hFn14 analyte, Langmuir 1:1 fit

synthetic peptide hFn14 sub-domain 2 (human), sequence (peptide, as listed by the source): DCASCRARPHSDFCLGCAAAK

% Agonist, IL-8 secretion by A375 cells (human Fn14 (human)) [%] | % Antagonist, IL-8 secretion by A375 cells (human Fn14 (human)) [%] | % decrease in binding compared to CRCBT-06-001 and CRCBT-06-002 [1] [%] | % decrease in binding compared with CRCBT-06-005 [2] [%] | Kd [3] [nM] | koff [3] [s⁻¹] | kon [3] [M⁻¹ s⁻¹] | Binder
21 | 9 | 68 | 76 | 4.1 | 0.00147 | 358000 | ITEM-1 (antibody, from another filing, V domains shown) VH: EVKLEESGGGLVQPGGSMKLSCVASGFSFSNYWMNWVRQSPEKGLEWVAEIRLKSNNYATHYAESVKGRFTISRHDSKSSVYLQMNNLRAEDTGIYYCTRAYADYFDYWGQGTTLTVSS VL: DIVLTQSPASLVVSLGQRATISCRASQSVSTSTYSYMHWYQQKPGQPPKILIKYASNLESGVPARFSGSGSGTDFTLNIHPVEEEDTATYYCQHSWEIPYTFGGGTKLEIKR
8 | 97 | – | – | 1.68 | 0.000864 | 510000 | ITEM-4 (antibody, from another filing, V domains shown) VH: QVQLQQSGPELVKPGASVKMSCKASGYTFTDFIIAWVKQRTGQGLEWIGEIYPGTGRTYYSEKFRGKATLTADKSSNTAYMQLSSLTSVDSAVYFCARRTIYYDYDGDYWGQGTTLTVSS VL: DIVMTQAAFSNPVTLGTSASISCRSSKSLLHSNGITYLYWYLQKPGQSPQLLIYQMSNLASGVPDRFSSSGSGTDFTLRISRVEAEDVGVYYCAHNLELPWTFGGGTKLELK
